Measured values: patent publication US20230220080A1 (EPIMAB BIOTHERAPEUTICS, published 2023)

Key:
[1] = biological target: Cyno EGFR (cynomolgus, UniProt A0A2K5WK39 25-645); test: protein based binding; method not stated
[2] = biological target: VEGF (UniProt P15692-4 27-191, limits assumed); test: method not stated
[3] = biological target: membrane EGFR on cells (human, UniProt P00533 25-1210); test: cell-based or functional assay
[4] = biological target: T1, human EGFR, recombinant protein (human, UniProt P00533 25-645); test: protein based binding; method not stated
T1 construct: also called hEGFR

[5] = biological target: T2, human PD-L1, recombinant protein (human, UniProt Q9NZQ7 19-239, limits assumed); test: SPR
T2 construct: also called rhPD-L1; PD-L1-his

[6] = biological target: T3, c-Met, recombinant protein (human, UniProt P08581 25-932, limits assumed); test: SPR
T3 construct: also called human cMet; cMet-his

[7] = biological target: IGF1R (UniProt P08069 31-932, limits assumed); test: method not stated
[8] = biological target: T4, hPD1-Fc (human, UniProt Q15116 25-167); test: SPR
T4 construct: not shown: Fc part not described

[9] = biological target: T5, CD22 on Raji and Daudi cells (human, UniProt P20273); test: FACS on Raji cells, Alexa Fluor 488 anti-human IgG1, MFI; the curve reaches only about 130 MFI
T5 construct: on the cell surface of the human B cell lines Raji and Daudi; the sheet names only the cell lines (Raji, Daudi); CD22 is the target that the text gives for Epratuzumab

[10] = biological target: T6, CD3 on the cell surface of Jurkat cells (human, UniProt P07766 23-207); test: FACS on Jurkat cells, Alexa Fluor 488 anti-human IgG1, MFI
T6 construct: whole, on cells; CD3 is a complex of several chains; also called CD3 (Jurkat)

[11] = biological target: T6, CD3 on the cell surface of Jurkat cells; test: FACS on Jurkat cells, 100 nM
[12] = biological target: T2, human PD-L1, recombinant protein; test: SPR Biacore X100, antigen immobilised on CM5, Ig injected
[13] = biological target: T2, human PD-L1, recombinant protein; test: method not stated
[14] = biological target: T2, human PD-L1, recombinant protein; test: method not stated; remark: listed apart in the source
[15] = biological target: T1, human EGFR, recombinant protein; test: method not stated

T2 sequence (Q9NZQ7 19-239 limits assumed): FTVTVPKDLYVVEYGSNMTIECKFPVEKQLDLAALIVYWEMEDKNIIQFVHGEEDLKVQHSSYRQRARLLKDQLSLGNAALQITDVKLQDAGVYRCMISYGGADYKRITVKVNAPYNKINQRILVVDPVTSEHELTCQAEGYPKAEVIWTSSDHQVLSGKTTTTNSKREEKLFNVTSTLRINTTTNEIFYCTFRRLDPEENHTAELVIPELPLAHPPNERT
T4 sequence (Q15116 25-167): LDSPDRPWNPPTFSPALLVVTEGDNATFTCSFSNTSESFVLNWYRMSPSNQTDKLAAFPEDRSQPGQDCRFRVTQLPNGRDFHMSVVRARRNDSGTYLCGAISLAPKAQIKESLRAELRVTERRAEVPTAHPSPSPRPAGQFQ
T3 sequence (P08581 25-932 limits assumed): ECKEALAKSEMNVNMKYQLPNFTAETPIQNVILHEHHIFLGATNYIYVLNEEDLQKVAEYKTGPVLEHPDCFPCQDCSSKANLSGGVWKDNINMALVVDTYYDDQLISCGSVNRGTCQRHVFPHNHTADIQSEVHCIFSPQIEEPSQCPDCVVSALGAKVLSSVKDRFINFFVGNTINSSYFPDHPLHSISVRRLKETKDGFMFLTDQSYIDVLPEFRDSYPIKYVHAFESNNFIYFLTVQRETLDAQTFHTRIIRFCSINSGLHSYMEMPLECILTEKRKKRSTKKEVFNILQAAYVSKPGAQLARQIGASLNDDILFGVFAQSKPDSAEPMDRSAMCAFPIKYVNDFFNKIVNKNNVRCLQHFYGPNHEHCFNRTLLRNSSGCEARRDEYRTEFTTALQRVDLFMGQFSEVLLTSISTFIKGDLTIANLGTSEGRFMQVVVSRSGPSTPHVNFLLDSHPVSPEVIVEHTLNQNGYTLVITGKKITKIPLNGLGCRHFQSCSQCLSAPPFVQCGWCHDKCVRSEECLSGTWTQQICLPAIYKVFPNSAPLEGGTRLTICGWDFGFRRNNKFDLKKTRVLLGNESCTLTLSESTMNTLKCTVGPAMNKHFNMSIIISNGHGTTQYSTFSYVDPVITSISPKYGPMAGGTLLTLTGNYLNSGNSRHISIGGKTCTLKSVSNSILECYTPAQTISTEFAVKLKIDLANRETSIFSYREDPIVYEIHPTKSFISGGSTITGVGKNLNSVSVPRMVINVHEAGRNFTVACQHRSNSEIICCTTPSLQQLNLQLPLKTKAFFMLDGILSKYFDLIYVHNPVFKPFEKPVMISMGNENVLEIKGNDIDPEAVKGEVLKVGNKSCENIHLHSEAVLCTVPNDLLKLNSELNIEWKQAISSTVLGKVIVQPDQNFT
Chain of VEGF (P15692 other isoform, or with tags, fused parts or gaps limits assumed): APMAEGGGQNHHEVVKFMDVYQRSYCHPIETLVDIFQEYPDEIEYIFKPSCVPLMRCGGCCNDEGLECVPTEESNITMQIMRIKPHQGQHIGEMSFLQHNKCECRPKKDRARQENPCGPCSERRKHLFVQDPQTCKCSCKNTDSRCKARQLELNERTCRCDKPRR

B1: EGFR antibody Panitumumab (antibody, V domains shown)
VH: QVQLQESGPGLVKPSETLSLTCTVSGGSVSSGDYYWTWIRQSPGKGLEWIGHIYYSGNTNYNPSLKSRLTISIDTSKTQFSLKLSSVTAADTAIYYCVRDRVTGAFDIWGQGTMVTVSS
VL: DIQMTQSPSSLSASVGDRVTITCQASQDISNYLNWYQQKPGKAPKLLIYDASNLETGVPSRFSGSGSGTDFTFTISSLQPEDIATYFCQHFDHLPLAFGGGTKVEIK
notes: parental mAb
- Kd [1]: 0.362 nM

B2: FIT017a DLL4 (demcizumab)/VEGF (bevcizumab) (bispecific antibody, human IgG1, kappa)
chain 1: not shown
chain 2: QVQLVQSGAEVKKPGASVKISCKASGYSFTAYYIHWVKQAPGQGLEWIGYISSYNGATNYNQKFKGRVTFTTDTSTSTAYMELRSLRSDDTAVYYCARDYDYDVGMDYWGQGTLVTVSSASTKGPSVFPLAPSSKSTSGGTAALGCLVKDYFPEPVTVSWNSGALTSGVHTFPAVLQSSGLYSLSSVVTVPSSSLGTQTYICNVNHKPSNTKVDKKVEPKSC
chain 3: not shown
notes: leader left out
- Kd [2]: 0.0365 nM

B3: FIT013a cMet (h1332 (13.3.2L-A91T,H-42K,S97T))/EGFR (panitumumab) (bispecific antibody, human IgG1, kappa)
chain 1: not shown
chain 2: QVQLVQSGAEVKKPGASVKVSCKASGYTFTSYGFSWVRQAPGQGLEWMGWISASNGNTYYAQKLQGRVTMTTDTSTSTAYMELRSLRSDDTAVYYCARVYADYADYWGQGTLVTVSSASTKGPSVFPLAPSSKSTSGGTAALGCLVKDYFPEPVTVSWNSGALTSGVHTFPAVLQSSGLYSLSSVVTVPSSSLGTQTYICNVNHKPSNTKVDKKVEPKSC
chain 3: not shown
notes: leader left out; also called FIT013a (c-met/EGFR)
- Kd [1]: 0.577 nM
- EGFR Depletion (%) on H441 cell, FACS [3]: 65.9%
- Kd [4]: 0.534 nM

B4: FIT023a cMet (h1332)/PD-L1 (1B12) (bispecific antibody, human IgG1, kappa)
chain 1: not shown
chain 2: QVQLVQSGAEVKKPGASVKVSCKASGYTFTSYGFSWVRQAPGQGLEWMGWISASNGNTYYAQKLQGRVTMTTDTSTSTAYMELRSLRSDDTAVYYCARVYADYADYWGQGTLVTVSSASTKGPSVFPLAPSSKSTSGGTAALGCLVKDYFPEPVTVSWNSGALTSGVHTFPAVLQSSGLYSLSSVVTVPSSSLGTQTYICNVNHKPSNTKVDKKVEPKSC
chain 3: not shown
notes: leader left out; also called FIT023a-Ig
- Kd [5]: 0.731 nM
- Kd [6]: 1.49 nM

B5: FIT016a HER3 (Patritumab)/IGF1R (Figitumumab) (bispecific antibody, human IgG1, kappa)
chain 1: not shown
chain 2: QVQLQQWGAGLLKPSETLSLTCAVYGGSFSGYYWSWIRQPPGKGLEWIGEINHSGSTNYNPSLKSRVTISVETSKNQFSLKLSSVTAADTAVYYCARDKWTWYFDLWGRGTLVTVSSASTKGPSVFPLAPSSKSTSGGTAALGCLVKDYFPEPVTVSWNSGALTSGVHTFPAVLQSSGLYSLSSVVTVPSSSLGTQTYICNVNHKPSNTKVDKKVEPKSC
chain 3: DIQMTQFPSSLSASVGDRVTITCRASQGIRNDLGWYQQKPGKAPKRLIYAASRLHRGVPSRFSGSGSGTEFTLTISSLQPEDFATYYCLQHNSYPCSFGQGTKLEIKRTVAAPSVFIFPPSDEQLKSGTASVVCLLNNFYPREAKVQWKVDNALQSGNSQESVTEQDSKDSTYSLSSTLTLSKADYEKHKVYACEVTHQGLSSPVTKSFNRGEC
notes: leader left out
- Kd [7]: 2.72 nM

B6: FIT022a HER3 (patritumab)/PD-1 (nivolumab) (bispecific antibody, human IgG1, kappa)
chain 1: not shown
chain 2: QVQLQQWGAGLLKPSETLSLTCAVYGGSFSGYYWSWIRQPPGKGLEWIGEINHSGSTNYNPSLKSRVTISVETSKNQFSLKLSSVTAADTAVYYCARDKWTWYFDLWGRGTLVTVSSASTKGPSVFPLAPSSKSTSGGTAALGCLVKDYFPEPVTVSWNSGALTSGVHTFPAVLQSSGLYSLSSVVTVPSSSLGTQTYICNVNHKPSNTKVDKKVEPKSC
chain 3: not shown
notes: leader left out; also called FIT022a-Ig
- Kd [8]: 2.34 nM

B7: Epratuzumab (antibody, V domains shown)
VH: QVQLVQSGAEVKKPGSSVKVSCKASGYTFTSYWLHWVRQAPGQGLEWIGYINPRNDYTEYNQNFKDKATITADESTNTAYMELSSLRSEDTAFYFCARRDITTFYWGQGTTVTVSS
VL: DIQLTQSPSSLSASVGDRVTMSCKSSQSVLYSANHKNYLAWYQQKPGKAPKLLIYWASTRESGVPSRFSGSGSGTDFTFTISSLQPEDIATYYCHQYLSSWTFGGGTKLEIK
notes: also called CD22 antibody Epratuzumab
- EC50 [9]: 13.2 nM

B8: anti-CD20 mAb Ofatumumab (antibody, V domains shown)
VH: EVQLVESGGGLVQPGRSLRLSCAASGFTFNDYAMHWVRQAPGKGLEWVSTISWNSGSIGYADSVKGRFTISRDNAKKSLYLQMNSLRAEDTALYYCAKDIQYGNYYYGMDVWGQGTTVTVSS
VL: EIVLTQSPATLSLSPGERATLSCRASQSVSSYLAWYQQKPGQAPRLLIYDASNRATGIPARFSGSGSGTDFTLTISSLEPEDFAVYYCQQRSNWPITFGQGTRLEIK
notes: parental mAb
- binding result [10]: no binding (tested: about 130 nM)

B9: OKT3/Ofatumumab FIT8-Ig (bispecific antibody, human IgG1, kappa)
chain 1: not shown
chain 2: not shown
chain 3: not shown
notes: GGGGSGS linker
- Binding Intensity by FACS (MFI) [11]: 211 MFI

B10: OKT3/Ofatumumab FIT7-Ig (bispecific antibody, human IgG1, kappa)
chain 1: not shown
chain 2: not shown
chain 3: not shown
notes: no linker; also called anti-CD3/CD20 FIT-Ig
- Binding Intensity by FACS (MFI) [11]: 159 MFI

B11: PD-L1 antibody 1B12 (antibody, V domains shown)
VH: QVQLVQSGAEVKKPGSSVKVSCKTSGDTFSSYAISWVRQAPGQGLEWMGGIIPIFGRAHYAQKFQGRVTITADESTSTAYMELSSLRSEDTAVYFCARKFHFVSGSPFGMDVWGQGTTVTVSS
VL: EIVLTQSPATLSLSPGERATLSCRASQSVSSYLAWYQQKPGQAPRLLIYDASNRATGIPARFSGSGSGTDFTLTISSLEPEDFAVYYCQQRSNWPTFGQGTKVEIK
notes: parental mAb
- Kd [12]: 0.402 nM
- Kd [5]: 0.708 nM
- Kd [13]: 9.08 nM

B12: PD-L1 antibody 10A5 (antibody, V domains shown)
VH: QVQLVQSGAEVKKPGASVKVSCKASGYTFTSYDVHWVRQAPGQRLEWMGWLHADTGITKFSQKFQGRVTITRDTSASTAYMELSSLRSEDTAVYYCARERIQLWFDYWGQGTLVTVSS
VL: DIQMTQSPSSLSASVGDRVTITCRASQGISSWLAWYQQKPEKAPKSLIYAASSLQSGVPSRFSGSGSGTDFTLTISSLQPEDFATYYCQQYNSYPYTFGQGTKLEIK
notes: parental mAb
- Kd [14]: 0.735 nM

B13: FIT012b-Ig EGFR (panitumumab)/PD-L1 (1B12) (bispecific antibody, human IgG1, kappa)
chain 1: not shown
chain 2: QVQLQESGPGLVKPSETLSLTCTVSGGSVSSGDYYWTWIRQSPGKGLEWIGHIYYSGNTNYNPSLKSRLTISIDTSKTQFSLKLSSVTAADTAIYYCVRDRVTGAFDIWGQGTMVTVSSASTKGPSVFPLAPSSKSTSGGTAALGCLVKDYFPEPVTVSWNSGALTSGVHTFPAVLQSSGLYSLSSVVTVPSSSLGTQTYICNVNHKPSNTKVDKKVEPKSC
chain 3: not shown
notes: leader left out
- Kd [13]: 3.89 nM

B14: FIT012d-Ig EGFR (panitumumab)/PD-L1 (10A5) (bispecific antibody)
chain 1: not shown
chain 2: QVQLQESGPGLVKPSETLSLTCTVSGGSVSSGDYYWTWIRQSPGKGLEWIGHIYYSGNTNYNPSLKSRLTISIDTSKTQFSLKLSSVTAADTAIYYCVRDRVTGAFDIWGQGTMVTVSSASTKGPSVFPLAPSSKSTSGGTAALGCLVKDYFPEPVTVSWNSGALTSGVHTFPAVLQSSGLYSLSSVVTVPSSSLGTQTYICNVNHKPSNTKVDKKVEPKSC
chain 3: not shown
notes: leader left out
- Kd [14]: 0.58 nM

B15: FIT019b-Ig EGFR (Panitumumab)/HER3 (patritumab) (bispecific antibody, human IgG1, kappa)
chain 1: not shown
chain 2: QVQLQESGPGLVKPSETLSLTCTVSGGSVSSGDYYWTWIRQSPGKGLEWIGHIYYSGNTNYNPSLKSRLTISIDTSKTQFSLKLSSVTAADTAIYYCVRDRVTGAFDIWGQGTMVTVSSASTKGPSVFPLAPSSKSTSGGTAALGCLVKDYFPEPVTVSWNSGALTSGVHTFPAVLQSSGLYSLSSVVTVPSSSLGTQTYICNVNHKPSNTKVDKKVEPKSC
chain 3: not shown
notes: leader left out
- Kd [15]: 0.338 nM

B16: IGF-1R antibody Figitumumab (antibody, V domains shown)
VH: EVQLLESGGGLVQPGGSLRLSCTASGFTFSSYAMNWVRQAPGKGLEWVSAISGSGGTTFYADSVKGRFTISRDNSRTTLYLQMNSLRAEDTAVYYCAKDLGWSDSYYYYYGMDVWGQGTTVTVSS
VL: DIQMTQFPSSLSASVGDRVTITCRASQGIRNDLGWYQQKPGKAPKRLIYAASRLHRGVPSRFSGSGSGTEFTLTISSLQPEDFATYYCLQHNSYPCSFGQGTKLEIK
notes: parental mAb
- Kd [7]: 0.729 nM
